Assay results taken from patent US20250152746A1, “BASE EDITING OF ANGPTL3 AND METHODS OF USING SAME FOR TREATMENT OF DISEASE” (Verve Therapeutics, Inc., priority 2020, published 2025).

Test system: PCSK9 gene splice site
Format: cell-based, human
Method: PCSK9 gRNAs were co-transfected with an equivalent amount of in vitro transcribed ABE8.8 mRNA MA002 (1:1 ratio by weight) into primary hepatocytes and processed as described in detailed methods. In one set of experiments, extracted genomic DNA was analyzed for base editing of the target splice site with next-generation sequencing of PCR amplicons generated around the target sites. Samples were prepared using the Nextera XT DNA library preparation kit (Illumina) according to the manufacturer's protocol. Briefly, two rounds of PCR were performed first to amplify the region of interest and second to add DNA sequences required for next generation sequencing and sample identification to the initial product. The final amplicon was sequenced on the Illumina MiSeq instrument according to the manufacturer's protocol.
Similarly, three gRNAs (GA098, GA099, GA100) were synthesized matching the 5′-[…]-3′ (SEQ ID NO: 15) (GA091) human protospacer sequence, as well as four gRNAs (GA067/GA101, GA102, GA103, GA347) matching the 5′-[…]-3′ (SEQ ID NO: 14) (GA067) cynomolgus protospacer sequence, but with more extensive chemical modifications of various kinds (Table 1). GA066 and GA095 contain the same chemical composition and modification pattern, as do GA067 and GA101 with one another. […] Each of the gRNAs described in Table 8, with an equivalent amount of in vitro transcribed ABE8.8 mRNA MA002 (1:1 ratio by weight), were co-transfected into primary human hepatocytes and primary cynomolgus hepatocytes via MessengerMax reagent, using various dilutions to assess for editing activity at different concentrations of test article. Three days after transfection, genomic DNA was harvested from the hepatocytes, and then assessed for base editing of the target splice site with next-generation sequencing.
Modifications and/or truncations to either the spacer or tracr portion of the gRNA was assessed by alteration of the GA066 spacer (5′-[…]-3′ (SEQ ID NO: 13)) (Table 12). […] Each of the gRNAs with an equivalent amount of in vitro transcribed ABE8.8 mRNA (1:1 ratio by weight) were co-transfected into primary human hepatocytes and primary cynomolgus hepatocytes and processed as described in detailed methods. […]

Row | Molecule | Human Primary Hepatocytes-splice site editing % 1250 ng/mL [%] | Human Primary Hepatocytes-splice site editing % 2500 ng/mL [%] | Human Primary Hepatocytes-splice site editing % 5000 ng/mL [%]
1 | GA078: PCSK9 gRNA for ABE8.8 splice site editing, Human/Cyno (nucleic acid, listed as RNA; note = Description of Combined DNA/RNA Molecule: Synthetic oligonucleotide; modified_base 1: mod_base = OTHER; note = 2'-O-Methyl-adenosine phosphorothioate; modified_base, PCSK9 gRNA for ABE8.8 splice site editing, Human/Cyno) guide: AGCACCTACCTCGGGAGCTGGTTTTAGAGCTAGAAATAGCAAGTTAAAATAAGGCTAGTCCGTTATCAACTTGAAAAAGTGGCACCGAGTCGGTGCTTTT | 6.5 | 10.0 | 12.6
2 | GA082: PCSK9 gRNA for ABE8.8 splice site editing, Human/Cyno (nucleic acid, listed as RNA; modified_base 1: mod_base = OTHER; note = 2'-O-Methyl-cytidine phosphorothioate; modified_base 2: mod_base = OTHER; note = 2'-O-Methyl-uridine phosphorothioate; modified_bas, PCSK9 gRNA for ABE8.8 splice site editing, Human/Cyno) guide: CTTACCTGCCCCATGGGTGCGTTTTAGAGCTAGAAATAGCAAGTTAAAATAAGGCTAGTCCGTTATCAACTTGAAAAAGTGGCACCGAGTCGGTGCTTTT | 5.6 | 9.6 | 9.8
3 | GA083: PCSK9 gRNA for ABE8.8 splice site editing, Human/Cyno (nucleic acid, 2'-O-methyl at 1, 2, other sugars and backbone not given here; further chemistry not fully specified, PCSK9 gRNA for ABE8.8 splice site editing, Human/Cyno) guide: UAAGGCCCAAGGGGGCAAGCGTTTTAGAGCTAGAAATAGCAAGTTAAAATAAGGCTAGTCCGTTATCAACTTGAAAAAGTGGCACCGAGTCGGTGCTTTT | 0.2 | 0.2 | 0.2
4 | GA084: PCSK9 gRNA for ABE8.8 splice site editing, Human/Cyno (nucleic acid, 2'-O-methyl at 1, 2, other sugars and backbone not given here; further chemistry not fully specified, PCSK9 gRNA for ABE8.8 splice site editing, Human/Cyno) guide: CCTCTTCACCTGCTCCTGAGGTTTTAGAGCTAGAAATAGCAAGTTAAAATAAGGCTAGTCCGTTATCAACTTGAAAAAGTGGCACCGAGTCGGTGCTTTT | 4.9 | 7.6 | 8.6
5 | GA085: PCSK9 gRNA for ABE8.8 splice site editing, Human/Cyno (nucleic acid, listed as RNA; modified_base 1: mod_base = OTHER; note = 2'-O-Methyl-guanosine phosphorothioate; modified_base 2: mod_base = OTHER; note = 2'-O-Methyl-cytidine phosphorothioate; modified_b, PCSK9 gRNA for ABE8.8 splice site editing, Human/Cyno) guide: GCCTCTTCACCTGCTCCTGAGTTTTAGAGCTAGAAATAGCAAGTTAAAATAAGGCTAGTCCGTTATCAACTTGAAAAAGTGGCACCGAGTCGGTGCTTTT | 1.2 | 1.8 | 2.4
6 | GA086: PCSK9 gRNA for ABE8.8 splice site editing, Human/Cyno (nucleic acid, listed as RNA; modified_base 1: mod_base = OTHER; note = 2'-O-Methyl-uridine phosphorothioate; modified_base 2: mod_base = OTHER; modified_base, PCSK9 gRNA for ABE8.8 splice site editing, Human/Cyno) guide: TTCACCTGCTCCTGAGGGGCGTTTTAGAGCTAGAAATAGCAAGTTAAAATAAGGCTAGTCCGTTATCAACTTGAAAAAGTGGCACCGAGTCGGTGCTTTT | 2.9 | 4.9 | 5.7
7 | GA089: PCSK9 gRNA for ABE8.8 splice site editing, Human/Cyno (nucleic acid, 2'-O-methyl at 1, 2, other sugars and backbone not given here; further chemistry not fully specified, PCSK9 gRNA for ABE8.8 splice site editing, Human/Cyno) guide: CCCCAGGCTGCAGCTCCCACGTTTTAGAGCTAGAAATAGCAAGTTAAAATAAGGCTAGTCCGTTATCAACTTGAAAAAGTGGCACCGAGTCGGTGCTTTT | 5.4 | 14.1 | 18.1
8 | GA090: PCSK9 gRNA for ABE8.8 splice site editing, Human/Cyno (nucleic acid, listed as RNA; modified_base 1: mod_base = OTHER; note = 2'-O-Methyl-guanosine phosphorothioate; modified_base 2: mod_base = OTHER; note = 2'-O-Methyl-cytidine phosphorothioate; modified_b, PCSK9 gRNA for ABE8.8 splice site editing, Human/Cyno) guide: GCAGGTGACCGTGGCCTGCGGTTTTAGAGCTAGAAATAGCAAGTTAAAATAAGGCTAGTCCGTTATCAACTTGAAAAAGTGGCACCGAGTCGGTGCTTTT | 0.3 | 0.5 | 0.4
